# What was measured:
# [1] = molecular target: PD-L1 on CHO-PD-L1 cells (Promega PD-1/PD-L1 Blockade Bioassay) (UniProt Q9NZQ7)
# [2] = molecular target: PD-L1-His antigen (human) (UniProt Q9NZQ7); assay: SPR (Biacore T200), PD-L1-His immobilised on chip, antibody as mobile phase, 1:1 Binding fit
# Sequence of PD-L1-His antigen (human) (Q9NZQ7 other isoform, or with tags, fused parts or gaps limits assumed): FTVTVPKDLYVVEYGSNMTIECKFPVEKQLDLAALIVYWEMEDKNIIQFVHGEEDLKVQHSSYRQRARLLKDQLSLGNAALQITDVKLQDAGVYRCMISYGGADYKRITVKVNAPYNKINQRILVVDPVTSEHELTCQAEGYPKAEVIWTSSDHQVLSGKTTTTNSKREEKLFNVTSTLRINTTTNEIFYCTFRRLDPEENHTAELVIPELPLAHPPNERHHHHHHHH
# Sequence of PD-L1 on CHO-PD-L1 cells (Promega PD-1/PD-L1 Blockade Bioassay) (Q9NZQ7 19-290 limits assumed): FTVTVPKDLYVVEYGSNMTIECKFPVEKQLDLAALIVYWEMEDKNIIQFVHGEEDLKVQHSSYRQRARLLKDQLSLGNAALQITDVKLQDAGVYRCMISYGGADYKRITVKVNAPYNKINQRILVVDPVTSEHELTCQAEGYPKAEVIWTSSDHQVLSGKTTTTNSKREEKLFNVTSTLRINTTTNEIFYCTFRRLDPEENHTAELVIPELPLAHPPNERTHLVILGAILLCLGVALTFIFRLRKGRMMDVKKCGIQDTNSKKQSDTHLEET
substance,measurement,setting,value
ATE antibody (amino acid sequence identical to atezolizumab),"EC50 (luciferase reporter, PD-1/PD-L1 blockade MOA assay; blocked partner: PD-1 on Jurkat-PD1 cells)",[1],0.087 µg/mL
same,Kd,[2],1.84 nM

# Reference: patent US20240067728A1
